We go through two molecules from article PMC3847620, “A valid strategy for precise identifications of transcription factor binding sites in combinatorial regulation using bioinformatic and experimental approaches”.

For data set [1], the target named is T1, MBP-IpMYB1 (Ipomoea purpurea, UniProt Q1JV13 1-272).
T1 sequence: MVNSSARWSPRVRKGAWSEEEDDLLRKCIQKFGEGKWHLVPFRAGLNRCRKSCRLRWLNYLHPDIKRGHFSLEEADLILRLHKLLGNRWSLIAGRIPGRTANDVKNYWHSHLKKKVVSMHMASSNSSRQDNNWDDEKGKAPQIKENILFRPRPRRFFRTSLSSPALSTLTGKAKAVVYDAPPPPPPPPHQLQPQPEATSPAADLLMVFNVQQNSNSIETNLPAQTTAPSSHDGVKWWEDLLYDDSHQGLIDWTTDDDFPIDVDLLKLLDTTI
Put plainly: EMSA; EMSA: 1x = 10 mM Tris-HCl pH 7.5, 50 mM NaCl, 8 mM MgCl2, 1 mM EDTA, 1 mM DTT, 5% glycerol; 20 pmol probe, 2 ug MBP-protein in 10 ul, 25 C, 10 min; 12% native PAGE, 0.25x TBE. As to conditions: protein: recombinant; tags: MBP (pMAL-c2G).

The target of data set [2] is T1, MBP-IpMYB1. Put plainly: EMSA; favored over probe 1; EMSA: 1x = 10 mM Tris-HCl pH 7.5, 50 mM NaCl, 8 mM MgCl2, 1 mM EDTA, 1 mM DTT, 5% glycerol; 20 pmol probe, 2 ug MBP-protein in 10 ul, 25 C, 10 min; 12% native PAGE, 0.25x TBE. As to conditions: protein: recombinant; tags: MBP (pMAL-c2G).

B1: p1x3 (dsDNA)
DNA 1: ATTCCTAGCTACCATACCTAGCTACCATACCTAGCTACCATATTA
DNA 2: TAATATGGTAGCTAGGTATGGTAGCTAGGTATGGTAGCTAGGAAT
With B1, in data set [1], the binding result is reported as “binds”.

B2: MYB1pro probe 3 (dsDNA)
DNA 1: TCTAGCTAGCTAGCTACCAACTGCAC
DNA 2: GTGCAGTTGGTAGCTAGCTAGCTAGA
B2: the binding result in data set [2] was “binds”.
